Experimental data reported in US6759384.
Non-standard residues stand in square brackets, D forms with d. *: point of attachment. 2Nal = N[C@@H](Cc1ccc2ccccc2c1)C(=O)O; Chg = N[C@H](C(=O)O)C1CCCCC1; Tos = Cc1ccc(S(=O)(=O)*)cc1

Assays:
[1] = target: human factor Xa (Enzyme Research Laboratories, Inc.) (human) (UniProt P00742); test: chromogenic FXa inhibition
[2] = target: human factor Xa (Enzyme Research Laboratories, Inc.) (human) (UniProt P00742); test: cell-based or functional assay
[3] = target: human thrombin (Enzyme Research Laboratories, Inc.) (human) (UniProt P00734); test: chromogenic enzyme inhibition, IC50 corrected for substrate
[4] = target: human factor Xa (Enzyme Research Laboratories, Inc.) (human) (UniProt P00742); test: as above

Chain of human factor Xa (Enzyme Research Laboratories, Inc.) (human) (P00742 41-179 limits assumed, chain 1 of 2): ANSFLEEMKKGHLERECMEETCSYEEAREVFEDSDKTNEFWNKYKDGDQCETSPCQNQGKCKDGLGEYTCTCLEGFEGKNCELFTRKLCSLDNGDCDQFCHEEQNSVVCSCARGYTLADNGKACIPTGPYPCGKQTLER
Chain of human factor Xa (Enzyme Research Laboratories, Inc.) (human) (P00742 235-488 limits assumed, chain 2 of 2): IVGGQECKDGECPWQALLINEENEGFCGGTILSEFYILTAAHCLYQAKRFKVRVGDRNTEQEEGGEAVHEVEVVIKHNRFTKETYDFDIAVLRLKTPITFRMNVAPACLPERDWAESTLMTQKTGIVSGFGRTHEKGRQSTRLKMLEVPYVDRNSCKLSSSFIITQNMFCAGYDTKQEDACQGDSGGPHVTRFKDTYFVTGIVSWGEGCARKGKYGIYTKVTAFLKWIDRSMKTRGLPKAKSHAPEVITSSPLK

Row | Substance | Ki [1] [µM] | other results
1 | Ac-Y-Chg-R-NH2 (peptide) | < 100 | EC50 (concentration giving 50% inhibition of coagulation), in vitro dilute prothrombin time assay, pooled human plasma [2]: 2.5 nM
2 | Ac-[2Nal][Chg]RLP-NH2 | < 100 | EC50 (concentration giving 50% inhibition of coagulation), in vitro dilute prothrombin time assay, pooled human plasma [2]: 140 nM
3 | Pgl(OH)-I-R-L-NH2 (peptide) | < 100 | –
4 | Ph-C(NOCH2Ph)-CO-I-R-NH2 (peptide) | < 100 | –
5 | TENSTOP (N-alpha-tosyl-Gly-p-amidinophenylalanine methyl ester) | – | Ki [3]: 2000 nM; Ki [4]: 2000 nM
6 | Tfa-(iBu)F(pNH2)-Chg-R-NH2 (peptide) | < 100 | –
7 | Tfa-(iBu)Nal(2)-Chg-R-L-P-NH2 (peptide) | < 100 | –
8 | Tfa-(iBu)Y-Chg-R-NH2 (peptide) | < 100 | –
9 | Tfa-(iBu)Y-I-PalMe(3)-NH2 (peptide) | < 100 | –
10 | Tfa-(iBu)Y-I-R-NH2 (peptide) | < 100 | –
11 | Tfa-(iBu)Y-I-R-OH (peptide) | < 100 | –
12 | Tfa-Y-Chg-R-NH2 (peptide) | < 100 | –
13 | Tos-Tyr-Ile-Arg-NH2 | < 100 | –
14 | Y-I-R-NH2 (peptide) | < 100 | –
15 | pAph-Chg-Arg-Leu-Pro-NH2 (peptide) | < 100 | –
16 | pal-I-R-C(SBut)-Hyp-NH2 (peptide) | < 100 | –
17 | y-Chg-R-L-NH2 (peptide) | < 100 | –
18 | y-Chg-R-NH2 (peptide) | < 100 | –
19 | y-I-R-NH2 (peptide) | < 100 | –
20 | y-Tle-R-Nle-P-NH2 (peptide) | < 100 | –
